T1: EsCas13d, nuclease-dead (Eubacterium siraeum, UniProt B0MS50, R295A;H300A;R849A;H854A)
T1 sequence: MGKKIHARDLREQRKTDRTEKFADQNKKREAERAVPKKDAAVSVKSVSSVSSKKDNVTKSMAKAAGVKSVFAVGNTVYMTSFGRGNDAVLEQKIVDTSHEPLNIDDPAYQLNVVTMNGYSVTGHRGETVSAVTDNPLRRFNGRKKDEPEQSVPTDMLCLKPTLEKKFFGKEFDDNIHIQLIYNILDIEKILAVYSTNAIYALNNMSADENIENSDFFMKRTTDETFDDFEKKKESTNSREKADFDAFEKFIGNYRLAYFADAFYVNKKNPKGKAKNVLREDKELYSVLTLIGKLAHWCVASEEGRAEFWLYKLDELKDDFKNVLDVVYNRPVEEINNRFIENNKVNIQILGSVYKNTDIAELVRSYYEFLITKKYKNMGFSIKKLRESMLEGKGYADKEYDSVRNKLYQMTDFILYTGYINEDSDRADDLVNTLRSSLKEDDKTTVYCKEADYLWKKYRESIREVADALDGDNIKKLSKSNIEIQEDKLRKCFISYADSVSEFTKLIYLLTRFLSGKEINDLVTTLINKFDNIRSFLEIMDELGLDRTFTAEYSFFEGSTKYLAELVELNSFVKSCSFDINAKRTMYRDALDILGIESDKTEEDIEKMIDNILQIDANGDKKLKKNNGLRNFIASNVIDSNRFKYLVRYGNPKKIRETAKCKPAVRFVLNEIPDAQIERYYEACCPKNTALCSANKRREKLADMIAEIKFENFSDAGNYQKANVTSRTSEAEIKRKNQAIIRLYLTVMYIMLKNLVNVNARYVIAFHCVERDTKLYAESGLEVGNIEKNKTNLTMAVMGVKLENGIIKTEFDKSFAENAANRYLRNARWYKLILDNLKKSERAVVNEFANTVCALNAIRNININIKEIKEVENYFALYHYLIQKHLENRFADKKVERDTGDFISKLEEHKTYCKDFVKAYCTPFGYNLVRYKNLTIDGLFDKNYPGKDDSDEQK

B1: target 1 MT 5'PFS GUA 3'PFS CAU (mixed)
RNA 1: CACCCGUGCAAAAAUGCAGGGGUCUAAAACUGAGCGGAUAACCUCUCUAUGG
RNA 2: GGGAAUGGAUCCACAUCUACGAAUUCGUACCAUAGAGAGGUUAUCCGCUCACAUAGAUCGGAAGAGCACACGU
B2: target 1 MT 5'PFS CAA 3'PFS AAA (mixed)
RNA 1: CACCCGUGCAAAAAUGCAGGGGUCUAAAACUGAGCGGAUAACCUCUCUAUGG
RNA 2: GGGAAUGGAUCCACAUCUACGAAUUCCAACCAUAGAGAGGUUAUCCGCUCAAAAAGAUCGGAAGAGCACACGU
B3: target 1 MT 5'PFS GCG 3'PFS UUG (mixed)
RNA 1: CACCCGUGCAAAAAUGCAGGGGUCUAAAACUGAGCGGAUAACCUCUCUAUGG
RNA 2: GGGAAUGGAUCCACAUCUACGAAUUCGCGCCAUAGAGAGGUUAUCCGCUCAUUGAGAUCGGAAGAGCACACGU
B4: target 1 insU 3' of 18,insU 3' of 12 (mixed)
RNA 1: CACCCGUGCAAAAAUGCAGGGGUCUAAAACUGAGCGGAUAACCUCUCUAUGG
RNA 2: GGGAAUGGAUCCACAUCUACGAAUUCGUACCAUAUGAGAGGUUUAUCCGCUCACCGAGAUCGGAAGAGCACACGU
B5: target 1 MT 5'PFS AGA 3'PFS AAU (mixed)
RNA 1: CACCCGUGCAAAAAUGCAGGGGUCUAAAACUGAGCGGAUAACCUCUCUAUGG
RNA 2: GGGAAUGGAUCCACAUCUACGAAUUCAGACCAUAGAGAGGUUAUCCGCUCAAAUAGAUCGGAAGAGCACACGU
B6: target 1 MT 5'PFS GCG 3'PFS UUA (mixed)
RNA 1: CACCCGUGCAAAAAUGCAGGGGUCUAAAACUGAGCGGAUAACCUCUCUAUGG
RNA 2: GGGAAUGGAUCCACAUCUACGAAUUCGCGCCAUAGAGAGGUUAUCCGCUCAUUAAGAUCGGAAGAGCACACGU
B7: target 1 MT 5'PFS AAC 3'PFS UUC (mixed)
RNA 1: CACCCGUGCAAAAAUGCAGGGGUCUAAAACUGAGCGGAUAACCUCUCUAUGG
RNA 2: GGGAAUGGAUCCACAUCUACGAAUUCAACCCAUAGAGAGGUUAUCCGCUCAUUCAGAUCGGAAGAGCACACGU
B8: target 1 MT 5'PFS UGG 3'PFS UUG (mixed)
RNA 1: CACCCGUGCAAAAAUGCAGGGGUCUAAAACUGAGCGGAUAACCUCUCUAUGG
RNA 2: GGGAAUGGAUCCACAUCUACGAAUUCUGGCCAUAGAGAGGUUAUCCGCUCAUUGAGAUCGGAAGAGCACACGU
B9: target 1 MT 5'PFS UGC 3'PFS ACA (mixed)
RNA 1: CACCCGUGCAAAAAUGCAGGGGUCUAAAACUGAGCGGAUAACCUCUCUAUGG
RNA 2: GGGAAUGGAUCCACAUCUACGAAUUCUGCCCAUAGAGAGGUUAUCCGCUCAACAAGAUCGGAAGAGCACACGU
B10: target 1 MT 5'PFS UGG 3'PFS UUU (mixed)
RNA 1: CACCCGUGCAAAAAUGCAGGGGUCUAAAACUGAGCGGAUAACCUCUCUAUGG
RNA 2: GGGAAUGGAUCCACAUCUACGAAUUCUGGCCAUAGAGAGGUUAUCCGCUCAUUUAGAUCGGAAGAGCACACGU
B11: target 1 MT 5'PFS GUA 3'PFS CAA (mixed)
RNA 1: CACCCGUGCAAAAAUGCAGGGGUCUAAAACUGAGCGGAUAACCUCUCUAUGG
RNA 2: GGGAAUGGAUCCACAUCUACGAAUUCGUACCAUAGAGAGGUUAUCCGCUCACAAAGAUCGGAAGAGCACACGU
B12: target 1 MT 5'PFS GUA 3'PFS CAG (mixed)
RNA 1: CACCCGUGCAAAAAUGCAGGGGUCUAAAACUGAGCGGAUAACCUCUCUAUGG
RNA 2: GGGAAUGGAUCCACAUCUACGAAUUCGUACCAUAGAGAGGUUAUCCGCUCACAGAGAUCGGAAGAGCACACGU
B13: target 1 MT 5'PFS GCG 3'PFS UUU (mixed)
RNA 1: CACCCGUGCAAAAAUGCAGGGGUCUAAAACUGAGCGGAUAACCUCUCUAUGG
RNA 2: GGGAAUGGAUCCACAUCUACGAAUUCGCGCCAUAGAGAGGUUAUCCGCUCAUUUAGAUCGGAAGAGCACACGU
B14: target 1 MT 5'PFS ACU 3'PFS CAU (mixed)
RNA 1: CACCCGUGCAAAAAUGCAGGGGUCUAAAACUGAGCGGAUAACCUCUCUAUGG
RNA 2: GGGAAUGGAUCCACAUCUACGAAUUCACUCCAUAGAGAGGUUAUCCGCUCACAUAGAUCGGAAGAGCACACGU
B15: target 1 insG 3' of 22,insU 3' of 2 (mixed)
RNA 1: CACCCGUGCAAAAAUGCAGGGGUCUAAAACUGAGCGGAUAACCUCUCUAUGG
RNA 2: GGGAAUGGAUCCACAUCUACGAAUUCGUACGCAUAGAGAGGUUAUCCGCUCUACCGAGAUCGGAAGAGCACACGU
B16: target 1 MT 5'PFS ACG 3'PFS CGU (mixed)
RNA 1: CACCCGUGCAAAAAUGCAGGGGUCUAAAACUGAGCGGAUAACCUCUCUAUGG
RNA 2: GGGAAUGGAUCCACAUCUACGAAUUCACGCCAUAGAGAGGUUAUCCGCUCACGUAGAUCGGAAGAGCACACGU
B17: target 1 MT 5'PFS UGG 3'PFS UUA (mixed)
RNA 1: CACCCGUGCAAAAAUGCAGGGGUCUAAAACUGAGCGGAUAACCUCUCUAUGG
RNA 2: GGGAAUGGAUCCACAUCUACGAAUUCUGGCCAUAGAGAGGUUAUCCGCUCAUUAAGAUCGGAAGAGCACACGU
B18: target 1 MT 5'PFS ACG 3'PFS CGG (mixed)
RNA 1: CACCCGUGCAAAAAUGCAGGGGUCUAAAACUGAGCGGAUAACCUCUCUAUGG
RNA 2: GGGAAUGGAUCCACAUCUACGAAUUCACGCCAUAGAGAGGUUAUCCGCUCACGGAGAUCGGAAGAGCACACGU
B19: target 1 MT 5'PFS GCG 3'PFS UUC (mixed)
RNA 1: CACCCGUGCAAAAAUGCAGGGGUCUAAAACUGAGCGGAUAACCUCUCUAUGG
RNA 2: GGGAAUGGAUCCACAUCUACGAAUUCGCGCCAUAGAGAGGUUAUCCGCUCAUUCAGAUCGGAAGAGCACACGU
B20: target 1 MT 5'PFS CAA 3'PFS AAC (mixed)
RNA 1: CACCCGUGCAAAAAUGCAGGGGUCUAAAACUGAGCGGAUAACCUCUCUAUGG
RNA 2: GGGAAUGGAUCCACAUCUACGAAUUCCAACCAUAGAGAGGUUAUCCGCUCAAACAGAUCGGAAGAGCACACGU
B21: target 1 MT 5'PFS UGC 3'PFS ACG (mixed)
RNA 1: CACCCGUGCAAAAAUGCAGGGGUCUAAAACUGAGCGGAUAACCUCUCUAUGG
RNA 2: GGGAAUGGAUCCACAUCUACGAAUUCUGCCCAUAGAGAGGUUAUCCGCUCAACGAGAUCGGAAGAGCACACGU
B22: target 1 MT 5'PFS UCG 3'PFS UCA (mixed)
RNA 1: CACCCGUGCAAAAAUGCAGGGGUCUAAAACUGAGCGGAUAACCUCUCUAUGG
RNA 2: GGGAAUGGAUCCACAUCUACGAAUUCUCGCCAUAGAGAGGUUAUCCGCUCAUCAAGAUCGGAAGAGCACACGU
B23: target 1 MT 5'PFS AGA 3'PFS AAG (mixed)
RNA 1: CACCCGUGCAAAAAUGCAGGGGUCUAAAACUGAGCGGAUAACCUCUCUAUGG
RNA 2: GGGAAUGGAUCCACAUCUACGAAUUCAGACCAUAGAGAGGUUAUCCGCUCAAAGAGAUCGGAAGAGCACACGU
B24: target 1 MT 5'PFS UAG 3'PFS CUG (mixed)
RNA 1: CACCCGUGCAAAAAUGCAGGGGUCUAAAACUGAGCGGAUAACCUCUCUAUGG
RNA 2: GGGAAUGGAUCCACAUCUACGAAUUCUAGCCAUAGAGAGGUUAUCCGCUCACUGAGAUCGGAAGAGCACACGU
B25: target 1 MT 5'PFS GUA 3'PFS CAC (mixed)
RNA 1: CACCCGUGCAAAAAUGCAGGGGUCUAAAACUGAGCGGAUAACCUCUCUAUGG
RNA 2: GGGAAUGGAUCCACAUCUACGAAUUCGUACCAUAGAGAGGUUAUCCGCUCACACAGAUCGGAAGAGCACACGU
B26: target 1 MT 5'PFS UGC 3'PFS ACU (mixed)
RNA 1: CACCCGUGCAAAAAUGCAGGGGUCUAAAACUGAGCGGAUAACCUCUCUAUGG
RNA 2: GGGAAUGGAUCCACAUCUACGAAUUCUGCCCAUAGAGAGGUUAUCCGCUCAACUAGAUCGGAAGAGCACACGU
B27: target 1 MT 5'PFS AGA 3'PFS AAC (mixed)
RNA 1: CACCCGUGCAAAAAUGCAGGGGUCUAAAACUGAGCGGAUAACCUCUCUAUGG
RNA 2: GGGAAUGGAUCCACAUCUACGAAUUCAGACCAUAGAGAGGUUAUCCGCUCAAACAGAUCGGAAGAGCACACGU
B28: target 1 MT 5'PFS UCG 3'PFS UCC (mixed)
RNA 1: CACCCGUGCAAAAAUGCAGGGGUCUAAAACUGAGCGGAUAACCUCUCUAUGG
RNA 2: GGGAAUGGAUCCACAUCUACGAAUUCUCGCCAUAGAGAGGUUAUCCGCUCAUCCAGAUCGGAAGAGCACACGU

These binders were tested against T1, EsCas13d, nuclease-dead (assay: crRNA (strand 1, pre-loaded); Mg2+; 40 mM Tris-HCl pH 7.5, 150 mM NaCl, 6 mM MgCl2, 1 mM DTT, 0.1% Tween-20, 0.2 mg/ml BSA; 25 C; 10 min per concentration, then washed). Settings: tags: His6-TwinStrep-SUMO cleaved; N-terminal SNAP kept (SNAP-Surface 488); label: 3' end held by stalled T7 RNA polymerase.
In the case of B1, the Kd is reported as 12 ± 1.15 nM. With B2 the Kd was 43 ± 18 nM. With B3 the Kd was 5.38 ± 0.505 nM. Work on B4 yielded a Kd of 26.1 ± 1.7 nM. B5 was tested, and the Kd was 61 ± 22 nM. With B6 the Kd was 9.05 ± 1.55 nM. With B7 the Kd was 14.1 ± 3.9 nM. Binder B8 has a Kd of 85 ± 23 nM. In the case of B9, the Kd is reported as 23.5 ± 8.5 nM. B10 gave a Kd of 59 ± 20.5 nM. Binder B11 has a Kd of 19.6 ± 2.3 nM. B12 gave a Kd of 17.6 ± 2.25 nM. B13 was tested, and the Kd was 7.85 ± 1 nM. Work on B14 yielded a Kd of about 80 nM. B15 showed a Kd of 29.7 ± 2.7 nM. B16 was tested, and the Kd was about 34 nM. B17 gave a Kd of 48.5 ± 10.5 nM. B18 gave a Kd of 57 ± 18 nM. B19 gave a Kd of 10.8 ± 2.8 nM. Work on B20 yielded a Kd of about 27.5 nM. Work on B21 yielded a Kd of 16.2 ± 4.65 nM. B22 showed a Kd of 38.5 ± 13.5 nM. B23 gave a Kd of about 65.5 nM. For B24, the Kd was 22 ± 5 nM. B25 showed a Kd of 16.9 ± 2.35 nM. In the case of B26, the Kd is reported as 10.8 ± 2.45 nM. Binder B27 has a Kd of about 90 nM. Work on B28 yielded a Kd of 24.5 ± 6.5 nM.
